Key:
[1] = target: Aβ1-42 labelled with HiLyte Fluor 488 (UniProt P05067); assay: microscale thermophoresis (Monolith NT.115); labelled Aβ1-42 kept at 4 °C for one week (oligomers and fibres), PPP serially diluted
[2] = target: Aβ1-42 labelled with HiLyte Fluor 488 (UniProt P05067); assay: microscale thermophoresis (Monolith NT.115); HiLyte Fluor 488-labelled Aβ1-42 at 80 nM in PBS, PPP serially diluted; freshly dissolved Aβ1-42

UniProt P05067, sequence (P05067 672-713 limits assumed): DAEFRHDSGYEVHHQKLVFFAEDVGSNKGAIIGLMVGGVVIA

- Kd [1]: 25.4 nM
- Kd [2]: 6.6 nM
Substance: Aβ-binding polymer (phagocytosis-promoting peptide, PPP): small peptide chain randomly synthesized from glutamic acid, lysine, alanine and tyrosine, molecular weight 4 kD to 52 kD (average 6.5 kD)
